Assay results as given in article PMC9723622, “PARP1 proximity proteomics reveals interaction partners at stressed replication forks” (Nucleic Acids Research, 2022).
Each block holds one binder with its values, some of them ahead of it.

Target: T1, recombinant PARP1 (human, UniProt P09874 1-1014)
T1 construct: PARP1, recombinant; also called purified PARP1; source: recombinant, purified
Assay: pull-down; His-GFP-TPX2 proteins immobilised on GFP-Trap beads, equimolar recombinant PARP1 added, 2 h 4°C; 20 mM Tris-HCl pH 7.5, 250 mM NaCl, 0.2% glycerol, 0.2% Triton X-100; Western blot
Settings: both partners purified

T1 sequence (P09874 whole entry): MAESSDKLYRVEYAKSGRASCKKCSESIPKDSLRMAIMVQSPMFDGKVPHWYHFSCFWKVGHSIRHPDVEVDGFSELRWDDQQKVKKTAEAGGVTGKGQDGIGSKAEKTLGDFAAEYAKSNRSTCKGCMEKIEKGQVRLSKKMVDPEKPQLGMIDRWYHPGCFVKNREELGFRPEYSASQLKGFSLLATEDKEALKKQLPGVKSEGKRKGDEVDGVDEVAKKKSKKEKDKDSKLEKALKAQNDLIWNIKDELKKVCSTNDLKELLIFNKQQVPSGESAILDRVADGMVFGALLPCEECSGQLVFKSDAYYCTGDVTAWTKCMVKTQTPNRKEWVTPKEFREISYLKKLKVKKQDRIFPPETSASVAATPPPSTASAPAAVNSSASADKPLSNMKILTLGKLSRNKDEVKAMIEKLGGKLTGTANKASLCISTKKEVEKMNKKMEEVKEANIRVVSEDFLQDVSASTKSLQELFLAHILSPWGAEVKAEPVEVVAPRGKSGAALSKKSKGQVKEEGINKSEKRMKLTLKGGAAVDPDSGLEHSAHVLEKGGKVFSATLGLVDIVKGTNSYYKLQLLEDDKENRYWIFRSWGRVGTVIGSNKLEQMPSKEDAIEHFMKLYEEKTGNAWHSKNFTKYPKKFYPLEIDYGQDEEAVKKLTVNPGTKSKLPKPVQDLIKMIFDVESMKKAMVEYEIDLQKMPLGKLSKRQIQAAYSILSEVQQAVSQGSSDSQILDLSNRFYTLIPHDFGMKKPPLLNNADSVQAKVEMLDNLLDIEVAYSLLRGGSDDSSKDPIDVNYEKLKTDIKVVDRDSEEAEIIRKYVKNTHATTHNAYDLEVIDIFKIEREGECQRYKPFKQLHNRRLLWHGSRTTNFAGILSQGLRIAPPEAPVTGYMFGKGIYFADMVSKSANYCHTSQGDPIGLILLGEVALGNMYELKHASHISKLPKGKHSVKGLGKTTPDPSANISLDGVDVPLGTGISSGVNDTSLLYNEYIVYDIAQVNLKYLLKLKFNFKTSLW

- binding result: binds
B1: His-GFP-tagged TPX2 N-terminal part (1–254 amino acids), recombinant (domain or fragment, UniProt Q9ULW0 1-254, looked up)
chain: MSQVKSSYSYDAPSDFINFSSLDDEGDTQNIDSWFEEKANLENKLLGKNGTGGLFQGKTPLRKANLQQAIVTPLKPVDNTYYKEAEKENLVEQSIPSNACSSLEVEAAISRKTPAQPQRRSLRLSAQKDLEQKEKHHVKMKAKRCATPVIIDEILPSKKMKVSNNKKKPEEEGSAHQDTAEKNASSPEKAKGRHTVPCMPPAKQKFLKSTEEQELEKSMKMQQEVVEMRKKNEEFKKLALAGIGQPVKKSVSQV
notes: also called TPX2_254only; source: recombinant, purified

- binding result: binds
B2: His-GFP-tagged TPX2 full-length protein (recombinant) (natural protein, UniProt Q9ULW0 1-747, looked up)
chain: MSQVKSSYSYDAPSDFINFSSLDDEGDTQNIDSWFEEKANLENKLLGKNGTGGLFQGKTPLRKANLQQAIVTPLKPVDNTYYKEAEKENLVEQSIPSNACSSLEVEAAISRKTPAQPQRRSLRLSAQKDLEQKEKHHVKMKAKRCATPVIIDEILPSKKMKVSNNKKKPEEEGSAHQDTAEKNASSPEKAKGRHTVPCMPPAKQKFLKSTEEQELEKSMKMQQEVVEMRKKNEEFKKLALAGIGQPVKKSVSQVTKSVDFHFRTDERIKQHPKNQEEYKEVNFTSELRKHPSSPARVTKGCTIVKPFNLSQGKKRTFDETVSTYVPLAQQVEDFHKRTPNRYHLRSKKDDINLLPSKSSVTKICRDPQTPVLQTKHRARAVTCKSTAELEAEELEKLQQYKFKARELDPRILEGGPILPKKPPVKPPTEPIGFDLEIEKRIQERESKKKTEDEHFEFHSRPCPTKILEDVVGVPEKKVLPITVPKSPAFALKNRIRMPTKEDEEEDEPVVIKAQPVPHYGVPFKPQIPEARTVEICPFSFDSRDKERQLQKEKKIKELQKGEVPKFKALPLPHFDTINLPEKKVKNVTQIEPFCLETDRRGALKAQTWKHQLEEELRQQKEAACFKARPNTVISQEPFVPKKEKKSVAEGLSGSLVQEPFQLATEKRAKERQELEKRMAEVEAQKAQQLEEARLQEEEQKKEELARLRRELVHKANPIRKYQGLEIKSSDQPLTVPVSPKFSTRFHC
notes: TPX2, full length; also called recombinant TPX2; full-length TPX2; source: recombinant, purified
